In patent US20250325664A1, “COMBINATION THERAPY WITH AN ANTI-COLONY STIMULATING FACTOR 1 RECEPTOR ANTIBODY AND A JAK INHIBITOR” (Incyte Corporation, priority 2024, published 2025):

Key:
[1] = Population PK/PD model of axatilimab: post-hoc exposures and pediatric simulation; set-up: species or system human; conditions: five participants aged 12 to 17 years in cGVHD studies vs adults of same dose groups
Source text: In addition, the developed population PK/PD model for axatilimab was extrapolated to simulate PK in pediatric patients aged 12 to 17 years, using standard allometric exponents of 0.75 for clearance-related parameters and 1.0 for volume of distribution-related parameters.

subjects with cGVHD [2] = conditions: human, in vivo
subjects with cGVHD [3] = experiment: Clinical study of axatilimab given as a single agent to subjects with cGVHD after at least two prior lines of systemic therapy

## axatilimab: humanized IgG4 monoclonal antibody that binds CSF-1R; heavy chain SEQ ID NO:2, light chain SEQ ID NO:3
[1]
  post-hoc PK exposures in participants aged 12 to 17 years: comparable to those observed in adult participants from the same dose groups
Subjects with cGVHD [2]
  severity of infections: Most infections were mild
Subjects with cGVHD [3]; 0.3 mg/kg Q2W
  participants with treatment-emergent adverse events (TEAEs): 6%
  reported CMV infections: no CMV infections were reported
Subjects with cGVHD [3]; 0.3 mg/kg Q2W cohort, first 6 cycles
  participants with reduction in modified Lee Symptom Scale (mLSS) score ≤7 points: 55%
Subjects with cGVHD [3]; 0.3 mg/kg Q2W vs 1 mg/kg Q2W vs 3 mg/kg Q4W
  frequency of treatment-related AEs, any grade and ≥Grade 3: showed dose dependency, with lowest incidence at 0.3 mg/kg Q2W
Subjects with cGVHD [3]; 0.3 mg/kg Q2W, first 6 cycles
  objective response rate (ORR), primary endpoint: 73.8%
Subjects with cGVHD [3]; 1 mg/kg Q2W
  participants with treatment-emergent adverse events (TEAEs): 22%
Subjects with cGVHD [3]; 1 mg/kg Q2W, first 6 cycles
  objective response rate (ORR), primary endpoint: 66.7%
Subjects with cGVHD [3]; 3 mg/kg Q4W
  participants with treatment-emergent adverse events (TEAEs): 18%
Subjects with cGVHD [3]; 3 mg/kg Q4W, first 6 cycles
  objective response rate (ORR), primary endpoint: 50%
Subjects with cGVHD [3]; all dose cohorts
  most common TEAEs: elevated aspartate aminotransferase/alanine aminotransferase (AST/ALT), creatine phosphokinase (CPK), lipase, amylase, and lactate dehydrogenase levels as well as periorbital edema
Subjects with cGVHD [3]; higher dose cohorts
  reported CMV infections (number): 2
